T1: CEACAM5 (R&D Systems, 4128-CM-050) (human, UniProt P06731 35-685)
T1 construct: Immobilised on the ELISA plate; also called human CEACAM5
T1 sequence (looked up): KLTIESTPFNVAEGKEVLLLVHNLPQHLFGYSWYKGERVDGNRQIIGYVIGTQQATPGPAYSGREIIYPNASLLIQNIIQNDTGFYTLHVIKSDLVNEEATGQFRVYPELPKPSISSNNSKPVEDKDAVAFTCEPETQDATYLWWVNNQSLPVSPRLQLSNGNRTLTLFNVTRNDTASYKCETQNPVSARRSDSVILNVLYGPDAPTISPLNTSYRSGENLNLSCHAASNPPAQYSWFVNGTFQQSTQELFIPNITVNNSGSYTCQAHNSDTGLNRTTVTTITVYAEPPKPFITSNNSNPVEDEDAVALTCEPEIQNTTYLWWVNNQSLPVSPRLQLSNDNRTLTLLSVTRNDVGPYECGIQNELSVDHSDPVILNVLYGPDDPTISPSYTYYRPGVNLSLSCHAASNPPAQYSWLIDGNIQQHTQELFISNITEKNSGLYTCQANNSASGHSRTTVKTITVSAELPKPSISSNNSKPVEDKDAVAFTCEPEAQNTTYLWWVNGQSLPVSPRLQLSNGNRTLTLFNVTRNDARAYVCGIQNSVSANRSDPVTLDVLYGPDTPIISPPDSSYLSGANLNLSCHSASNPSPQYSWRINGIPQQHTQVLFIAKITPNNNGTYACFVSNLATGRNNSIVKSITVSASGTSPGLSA

B1: (Y-S1-X)p-Fab^2 with Y Gd/DOTA, S1 - (bond), X -Gly-Lys*-Z2(#N)- (Fab, V domains shown)
VH: EVQLVESGGGLVQPGGSLRLSCAASGFNIRDTYMHWVRQAPGKGLEWVARIDPANGNSRYVPKFQGRFTISADTSRNTAYLQMNSLRAEDTAVYYCAPFGYYVSDYAMAYWGQGTLVTVSS
VL: DIQLTQSPSSLSASVGDRVTITCRAGESVDIFGVGFLHWYQQKPGKAPKLLIYRASNLESGIPSRFSGSGSRTDFTLTISSLQPEDFATYYCQQTNEDPYTFGQGTKVEIKR
modifications: labeling may sit on this chain; sites not stated; labeling portion (MW 825) on amino groups of the Fab, sites and chain not stated; 1-3 per Fab by MS
notes: also called Ex-No 20; conjugate 20
B2: (Y-S1-X)p-Fab^2 with Y Gd/DOTA, S1 - (bond), X -Gly-(naph-Ala)-Lys*-Z2(#S)- (Fab, V domains shown)
VH: B1 VH
VL: B1 VL
modifications: labeling may sit on this chain; sites not stated; labeling portion (MW 1123) on amino groups of the Fab, sites and chain not stated; 1-2 per Fab by MS
notes: also called Ex-No 31; conjugate 31
B3: (Y-S1-X)p-Fab^2 with Y Gd/DOTA, S1 - (bond), X -Gly-(diph-Ala)-Lys*-Z2(#S)- (Fab, V domains shown)
VH: B1 VH
VL: B1 VL
modifications: labeling may sit on this chain; sites not stated; labeling portion (MW 1149) on amino groups of the Fab, sites and chain not stated; 1-3 per Fab by MS
notes: also called Ex-No 30; conjugate 30
B4: (Y-S1-X)p-Fab^2 with Y Gd/DOTA, S1 -NH-(CH2CH2O)3-CH2-C(═O)-, X -Met-Gly-Lys*-Z2(#N)- (Fab, V domains shown)
VH: B1 VH
VL: B1 VL
modifications: labeling may sit on this chain; sites not stated; labeling portion (MW 1145) on amino groups of the Fab, sites and chain not stated; 1-4 per Fab by MS
notes: also called Ex-No 41; conjugate 41
B5: (Y-S1-X)p-Fab^2 with Y Gd/DOTA, S1 spacer (d), X -Gly-Lys*-Z2(#N)- (Fab, V domains shown)
VH: B1 VH
VL: B1 VL
modifications: labeling may sit on this chain; sites not stated; labeling portion (MW 954) on amino groups of the Fab, sites and chain not stated; 1-3 per Fab by MS
notes: also called Ex-No 26; conjugate 26
B6: (Y-S1-X)p-Fab^2 with Y Gd/DOTA, S1 spacer (b), X -Gly-Lys*-Z2(#N)- (Fab, V domains shown)
VH: B1 VH
VL: B1 VL
modifications: labeling may sit on this chain; sites not stated; labeling portion (MW 950) on amino groups of the Fab, sites and chain not stated; 1-3 per Fab by MS
notes: also called Ex-No 27; conjugate 27
B7: (Y-S1-X)p-Fab^2 with Y Gd/DOTA, S1 given only as drawing CHEM-US-00151, X -Met-Gly-Lys*-Z2(#N)- (Fab, V domains shown)
VH: B1 VH
VL: B1 VL
modifications: labeling may sit on this chain; sites not stated; labeling portion (MW 1101) on amino groups of the Fab, sites and chain not stated; 1-2 per Fab by MS
notes: also called Ex-No 34; conjugate 34
B8: (Y-S1-X)p-Fab^2 with Y Gd/DOTA, S1 -NH-CH2-(1,3-Ph)-C(═O)-, X -Gly-Tyr*-CH2-C(═O)-NH-(CH2)2-Z1(#N)- (Fab, V domains shown)
VH: B1 VH
VL: B1 VL
modifications: labeling may sit on this chain; sites not stated; labeling portion (MW 1093) on amino groups of the Fab, sites and chain not stated; 1-3 per Fab by MS
notes: also called Ex-No 14; conjugate 14
B9: (Y-S1-X)p-Fab^2 with Y Gd/DOTA, S1 spacer (c), X -Gly-Lys*-Z2(#N)- (Fab, V domains shown)
VH: B1 VH
VL: B1 VL
modifications: labeling may sit on this chain; sites not stated; labeling portion (MW 908) on amino groups of the Fab, sites and chain not stated; 1-3 per Fab by MS
notes: also called Ex-No 28; conjugate 28
B10: (Y-S1-X)p-Fab^2 with Y Gd/DOTA, S1 - (bond), X -Gly-Tyr*-CH2(═O)-NH-(CH2)2-Z1(#N)- (Fab, V domains shown)
VH: B1 VH
VL: B1 VL
modifications: labeling may sit on this chain; sites not stated; labeling portion (MW 960) on amino groups of the Fab, sites and chain not stated; 1-4 per Fab by MS
notes: also called Ex-No 21; conjugate 21
B11: [Gd/DOTA-NH-CH2-(1,4-Ph)-NH-C(═O)-Met-Ile-NH-(CH2)2-Z1(#N)]p-Fab^2 (Fab, V domains shown)
VH: B1 VH
VL: B1 VL
modifications: labeling may sit on this chain; sites not stated; labeling portion (MW 1074) on amino groups of the Fab, sites and chain not stated; 1-3 per Fab by MS
notes: also called Ex-No 18; Conjugate No. 18
B12: (Y-S1-X)p-Fab^2 with Y Gd/DOTA, S1 spacer (e), X -Met-Gly-Lys*-Z2(#N)- (Fab, V domains shown)
VH: B1 VH
VL: B1 VL
modifications: labeling may sit on this chain; sites not stated; labeling portion (MW 1095) on amino groups of the Fab, sites and chain not stated; 1-2 per Fab by MS
notes: also called Ex-No 32; conjugate 32
B13: (Y-S1-X)p-Fab^2 with Y Gd/DOTA, S1 -NH-(CH2)3-C(═O)-, X -Gly-Tyr*-CH2-C(═O)-NH-(CH2)2-Z1(#N)- (Fab, V domains shown)
VH: B1 VH
VL: B1 VL
modifications: labeling may sit on this chain; sites not stated; labeling portion (MW 1045) on amino groups of the Fab, sites and chain not stated; 1-3 per Fab by MS
notes: also called Ex-No 36; conjugate 36
B14: (Y-S1-X)p-Fab^2 with Y Gd/DOTA, S1 -NH-CH2-(1,3-Ph)-C(═O)-, X -Gly-Lys*-Z2(#N)- (Fab, V domains shown)
VH: B1 VH
VL: B1 VL
modifications: labeling may sit on this chain; sites not stated; labeling portion (MW 958) on amino groups of the Fab, sites and chain not stated; 1-3 per Fab by MS
notes: also called Ex-No 9; conjugate 9
B15: (Y-S1-X)p-Fab^2 with Y Gd/DOTA, S1 -NH-(CH2CH2O)3-CH2-C(═O)-NH-CH2-(1,3-Ph)-C(═O)-, X -Gly-Tyr*-CH-C(═O)-NH-(CH2)2-Z1(#S) (Fab, V domains shown)
VH: B1 VH
VL: B1 VL
modifications: labeling may sit on this chain; sites not stated; labeling portion (MW 1384) on amino groups of the Fab, sites and chain not stated; 1-3 per Fab by MS
notes: also called Ex-No 39; conjugate 39
B16: (Y-S1-X)p-Fab^2 with Y Gd/DOTA, S1 -NH-(CH2)2-C(═O)-, X -Gly-Lys*-Z2(#N)- (Fab, V domains shown)
VH: B1 VH
VL: B1 VL
modifications: labeling may sit on this chain; sites not stated; labeling portion (MW 896) on amino groups of the Fab, sites and chain not stated; 1-3 per Fab by MS
notes: also called Ex-No 22; conjugate 22
B17: (Y-S1-X)p-Fab^2 with Y Gd/DOTA, S1 -NH-CH2-(1,4-Ph)-C(═O)-, X -Met-Gly-Lys*-Z2(#S)- (Fab, V domains shown)
VH: B1 VH
VL: B1 VL
modifications: labeling may sit on this chain; sites not stated; labeling portion (MW 1190) on amino groups of the Fab, sites and chain not stated; 1-3 per Fab by MS
notes: also called Ex-No 38; conjugate 38
B18: [Gd/DOTA-NH-CH2-(1,3-Ph)-C(═O)-Met-Gly-Lys*-Z2(#N)]p-Fab^2 (Fab, V domains shown)
VH: B1 VH
VL: B1 VL
modifications: labeling may sit on this chain; sites not stated; labeling portion (MW 1089) on amino groups of the Fab, sites and chain not stated; 1-3 per Fab by MS
notes: also called Ex-No 13; Conjugate No. 13

Target: T1, CEACAM5 (R&D Systems, 4128-CM-050)
Assay: ELISA on immobilised CEACAM5, 4-parameter fit, duplicate
Description: Each anti-human CEACAM5 antibody Fab fragment conjugate prepared in Example 2 was subjected to ELISA to evaluate the binding activity thereof to CEACAM5. In the present test, a phosphate buffer (Nacalai Tesque Inc., 0.1 mol/L-Phosphate Buffer Solution (pH 7.2)) prepared to 10 mM by diluting 10-fold with distilled water was used as a solvent for an antigen immobilization liquid, and 20×PBS/Tween 20 Buffer (Thermo Fisher Scientific Inc., 28352) diluted 20-fold with distilled water was used as a wash liquid. In addition, for bovine serum albumin (BSA) used in the present test, 30% Bovine Serum Albumin solution (Sigma-Aldrich, Inc., A9576-50ML) was added in an appropriate proportion for use. CEACAM5 (R&D Systems, 4128-CM-050) was diluted with a 10 mM phosphate buffer (pH 7.2) to 0.1 μg/mL, and added to a Nunc MaxiSorp White 384 plate (Nunc, 4603272) at 30 μL per well, and the plate was incubated overnight at 4° C. for immobilization. The CEACAM5 immobilization liquid was removed by reverse centrifugation, and then blocking was carried out by adding a PBS/Tween 20 buffer containing 5.0% BSA. Thereafter, the blocking solution was removed by reverse centrifugation, a solution of each CEACAM5 antibody Fab² fragment conjugate described above or a Fab² fragment having no labeling portion (PB009-01) as a control at about 10000 ng/mL was diluted in 14 steps by 3-fold dilution using a PBS/Tween 20 buffer containing 1.0% BSA, and 30 μL was added per well and incubated at room temperature for 60 minutes. The plate was washed 3 times with a PBS/Tween 20 buffer, and Horseradish Peroxidase (HRP)-labeled goat anti-human IgG (H+L chain) antibody (MBL Life Sciences, 206) diluted 1000-fold using a PBS/Tween 20 buffer containing 5.0% BSA was added at 30 μL per well and incubated at room temperature for 30 minutes. The plate was washed 3 times with a PBS/Tween 20 buffer, and ECL Prime Western Blotting DETECTION Reagent (GE Healthcare, RPN2232) as a substrate was added at 30 μL per well. The substrate was incubated at room temperature for 15 minutes, and then a signal value thereof was measured using an Envision counter (PerkinElmer, Inc.).
The test for each antibody was carried out in duplicate, and an EC₅₀ value was calculated using a 4-parameter logistic curve model.

Row | Binder | EC50 [nM]
1 | B1 | 0.22
2 | B2 | 0.3
3 | B3 | 0.31
4 | B4 | 0.21
5 | B5 | 0.3
6 | B6 | 0.46
7 | B7 | 0.38
8 | B8 | 0.13
9 | B9 | 0.36
10 | B10 | 0.27
11 | B11 | 0.24
12 | B12 | 0.37
13 | B13 | 0.38
14 | B14 | 0.1
15 | B15 | 0.2
16 | B16 | 0.32
17 | B17 | 0.18
18 | B18 | 0.14

Reference: US20220096653A1, “CONJUGATE COMPRISING LIGAND AND CEACAM5 ANTIBODY FAB FRAGMENT” (ASTELLAS PHARMA INC., priority 2019, published 2022)
